From patent US11242370B2, “Neuregulin-4 compounds and methods of use” (Eli Lilly and Company, priority 2019, dated 2022)
Where a chain is given by its changes, count along the chain named. Names may count otherwise.

B1: Example 10: NRG4 D1G/V22Q/E44K, (GGGGS)3 linker, SEQ ID NO: 19, fused to IgG Fc dimer SEQ ID NO: 6 and 7 (protein)
chain 1: GGGGSGGGGSGGGGSGHEEPCGPSHKSFCLNGGLCYQIPTIPSPFCRCVENYTGARCEKVFL
chain 2: ECPPCPAPPVAGPSVFLFPPKPKDTLMISRTPEVTCVVVDVSHEDPEVQFNWYVDGVEVHNAKTKPREEQFNSTFRVVSVLTVVHQDWLNGKEYKCKVSNKGLPAPIEKTISKTKGQPREPQVYTLPPSREEMTKNQVSLWCLVKGFYPSDIAVEWESNGQPENNYKTTPPVLDSDGSFFLYSKLTVDKSRWQQGNVFSCSVMHEALHNHYTQKSLSLSPG
chain 3: B1 chain 2 with W141S, L143A, Y182V

Experiments:
Type in all cases: cell-based
human HER2/HER3 = target: T1, human HER2/HER3 (Homo sapiens, UniProt P21860); experiment: Human HER2/HER3 phospho-ERK 1/2 assay, purified proteins, CHO-K1 cells; settings: for EC50: purified proteins, phospho-ERK1/2
T1 construct: expressed in transfected cells
Method: (§1) A cell based assay utilizing CHO-K1 cells overexpressing human or rat HER receptors is used to determine activity of NRG4 compounds. CHO-K1 cells (ATCC) are grown in DMEM-F12 3:1 with 5% FBS with 20 mM HEPES, 40 μg/mL L-Proline, lx antibiotics and were split 1:5 every 2-3 days with TripLE Express (Gibco). Cells are transfected with plasmid DNA encoding HER receptors in pairs (hHER2-3, hHER2-4, rHER2-3 and rHER2-4) with Fugene 6 (Promega) according to the manufacturer's instructions. […] Transfected cells are selected with Puromycin (12 ug/ml) and Hygromycin (1 mg/ml) for 3-4 weeks and clonal lines are obtained by limited dilution cloning into 96 well plates. Clonal lines are selected by appropriate gene expression of HER2, HER3 or HER4 by Taqman method. Lines with appropriate receptor expression are confirmed by NRG1 induced phospho-ERK 1/2 responses. Clones are grown up, harvested, aliquoted into cryovials and then frozen under liquid nitrogen for long-term storage.
(§2) A phospho-ERK1/2 activity assay is utilized with CHO-K1 cells overexpressing human or rat HER receptors to determine potencies and selectivity of purified NRG4 compounds. CHO-K1 cell lines expressing the human or rat HER receptors are cultured with selection medium (DMEM-F12 3:1 with 5% FBS with 20 mM HEPES, 40 μg/mL L-Proline, 1× antibiotics, 12 μg/mL puromycin, 1 mg/mL Hygromycin B). On Day −1 (the day before phospho-ERK1/2 assay), cells are washed once with PBS, detached with enzyme free cell dissociation solution (GIBCO cat #13151-014), and resuspended in plating medium (DMEM-F12 3:1 with 20 mM HEPES, lx antibiotics, 0.2% FBS). Cells are plated in a 96-well Poly-D-Lysine coated plate (BD cat #354640) at 10,000 cells per 0.1 mL per well. Cells are cultured in a tissue culture incubator at 37° C. 5% CO2 overnight. On Day 1 (the day of pERK1/2 assay), plates are incubated at room temperature for 30 min. The culture media are removed followed by addition of 504, ligand at various concentrations diluted in PBS-20 mM HEPES-0.005% BSA. Native human NRG1 and NRG4 peptides are purchased from Reprokine (Tampa, Fla.). The stimulation time is 30 min (except for hHER2-4 1H6 line in which 15 min is used for stimulation). At the end of stimulation, ligands are removed and 704, Lysis buffer (made according to manufacturer's recipe, Perkin Elmer cat #ALSU-PERK-A10K) is added. Plates are incubated at room temperature for 10 min on plate shaker with 350 rpm agitation, then on ice for 1 hour without shaking. 304, of cell lysis is transferred to a 96-well white Optiplate (Perkin Elmer cat #6002290) for phospho-ERK1/2 assay. Briefly 7.5 μL acceptor beads are added to 30 μL lysis in Optiplate. The plate is covered with aluminum foil and incubated at room temperature for 1 hour on plate shaker with 350 rpm agitation. Then 7.5 μL donor beads are added and the plate is covered with aluminum foil and incubated at room temperature for 2 hours on plate shaker with 350 rpm agitation or at 4° C. for overnight (warm up plate at room temperature for 2 h before reading). Alpha signal data are obtained on an Envision instrument (Alpha Technology-compatible plate reader). Donor beads and acceptor beads are made according to assay protocol. The data shown are generated with either the AlphaScreen SureFire p-ERK1/2 (Thr202/Tyr204) assay kit (Cat #TGRES50k) or the AlphaLISA® SureFire® Ultra™ p-ERK 1/2 (Thr202/Tyr204) assay kit (Perkin Elmer cat #ALSU-PERK-A10K). The activity of the NRG1 peptide was similar in both types of assays. […]

human HER2/HER4 = target: T2, human HER2/HER4 (Homo sapiens, UniProt Q15303); experiment: Human HER2/HER4 phospho-ERK 1/2 assay, purified proteins, CHO-K1 cells; settings: for % Maximal NRG1 activity: maximal signal relative to native human NRG1 per plate; for EC50: purified proteins, phospho-ERK1/2
T2 construct: expressed in transfected cells
Method: as §1
as §2, with “assays. Raw data obtained from the Envision instrument is imported into GraphPad Prism software (version 7). The EC50 value is generated by a variable slope-four parameter dose response curve. The % of maximal NRG1 activity data are generated by expressing the average maximal raw data for the NRG4 compound over the average maximal raw data for the native human NRG1 per plate and multiplying by 100. Data are provided below in Tables 7-9. N values reflect number of independent assays run.” for “assays.”

rat HER2/HER4 = target: T3, rat HER2/HER4 (Rattus norvegicus, UniProt Q62956); experiment: Rat HER2/HER4 phospho-ERK 1/2 assay, purified proteins, CHO-K1 cells; settings: for % Maximal NRG1 activity: maximal signal relative to native human NRG1 per plate; for EC50: purified proteins, phospho-ERK1/2
T3 construct: expressed in transfected cells
Method: as §1
as §2, with “assays. Raw data obtained from the Envision instrument is imported into GraphPad Prism software (version 7). The EC50 value is generated by a variable slope-four parameter dose response curve. The % of maximal NRG1 activity data are generated by expressing the average maximal raw data for the NRG4 compound over the average maximal raw data for the native human NRG1 per plate and multiplying by 100. Data are provided below in Tables 7-9. N values reflect number of independent assays run.” for “assays.”

T3 sequence (Q62956 26-1308): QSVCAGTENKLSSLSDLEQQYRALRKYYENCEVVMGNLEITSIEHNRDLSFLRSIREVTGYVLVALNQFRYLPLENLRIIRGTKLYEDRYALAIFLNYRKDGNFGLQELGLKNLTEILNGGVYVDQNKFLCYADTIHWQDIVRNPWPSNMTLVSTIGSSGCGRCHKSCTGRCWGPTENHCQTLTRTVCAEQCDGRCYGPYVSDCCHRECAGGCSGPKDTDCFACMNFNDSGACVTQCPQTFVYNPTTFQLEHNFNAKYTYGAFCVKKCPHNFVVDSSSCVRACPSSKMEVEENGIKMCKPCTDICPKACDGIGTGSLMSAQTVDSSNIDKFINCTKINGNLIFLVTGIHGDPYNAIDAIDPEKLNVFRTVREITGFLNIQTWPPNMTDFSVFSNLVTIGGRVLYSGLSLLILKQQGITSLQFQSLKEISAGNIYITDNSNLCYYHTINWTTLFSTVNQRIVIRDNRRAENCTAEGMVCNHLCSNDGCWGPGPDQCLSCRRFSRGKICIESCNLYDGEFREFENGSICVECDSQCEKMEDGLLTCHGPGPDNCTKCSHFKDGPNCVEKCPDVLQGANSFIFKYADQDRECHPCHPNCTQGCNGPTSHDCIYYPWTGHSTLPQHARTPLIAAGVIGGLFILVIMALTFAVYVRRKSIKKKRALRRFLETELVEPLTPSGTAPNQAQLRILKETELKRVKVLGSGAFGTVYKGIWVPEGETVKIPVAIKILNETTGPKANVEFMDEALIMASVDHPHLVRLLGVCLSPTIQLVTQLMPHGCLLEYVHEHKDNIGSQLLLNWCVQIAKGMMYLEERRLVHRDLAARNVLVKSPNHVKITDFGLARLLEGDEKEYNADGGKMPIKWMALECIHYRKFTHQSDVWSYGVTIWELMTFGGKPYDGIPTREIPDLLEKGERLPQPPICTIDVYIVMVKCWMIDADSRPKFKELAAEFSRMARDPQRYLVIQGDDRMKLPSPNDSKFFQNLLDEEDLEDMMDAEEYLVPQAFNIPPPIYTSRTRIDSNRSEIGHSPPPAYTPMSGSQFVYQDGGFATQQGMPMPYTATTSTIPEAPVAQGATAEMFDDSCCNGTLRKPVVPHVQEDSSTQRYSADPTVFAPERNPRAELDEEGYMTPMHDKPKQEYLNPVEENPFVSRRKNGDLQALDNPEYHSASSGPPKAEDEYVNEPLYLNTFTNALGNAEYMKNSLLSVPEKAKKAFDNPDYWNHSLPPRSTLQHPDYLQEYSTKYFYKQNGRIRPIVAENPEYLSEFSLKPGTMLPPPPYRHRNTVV
T3 sequence (P06494 23-1257 partner): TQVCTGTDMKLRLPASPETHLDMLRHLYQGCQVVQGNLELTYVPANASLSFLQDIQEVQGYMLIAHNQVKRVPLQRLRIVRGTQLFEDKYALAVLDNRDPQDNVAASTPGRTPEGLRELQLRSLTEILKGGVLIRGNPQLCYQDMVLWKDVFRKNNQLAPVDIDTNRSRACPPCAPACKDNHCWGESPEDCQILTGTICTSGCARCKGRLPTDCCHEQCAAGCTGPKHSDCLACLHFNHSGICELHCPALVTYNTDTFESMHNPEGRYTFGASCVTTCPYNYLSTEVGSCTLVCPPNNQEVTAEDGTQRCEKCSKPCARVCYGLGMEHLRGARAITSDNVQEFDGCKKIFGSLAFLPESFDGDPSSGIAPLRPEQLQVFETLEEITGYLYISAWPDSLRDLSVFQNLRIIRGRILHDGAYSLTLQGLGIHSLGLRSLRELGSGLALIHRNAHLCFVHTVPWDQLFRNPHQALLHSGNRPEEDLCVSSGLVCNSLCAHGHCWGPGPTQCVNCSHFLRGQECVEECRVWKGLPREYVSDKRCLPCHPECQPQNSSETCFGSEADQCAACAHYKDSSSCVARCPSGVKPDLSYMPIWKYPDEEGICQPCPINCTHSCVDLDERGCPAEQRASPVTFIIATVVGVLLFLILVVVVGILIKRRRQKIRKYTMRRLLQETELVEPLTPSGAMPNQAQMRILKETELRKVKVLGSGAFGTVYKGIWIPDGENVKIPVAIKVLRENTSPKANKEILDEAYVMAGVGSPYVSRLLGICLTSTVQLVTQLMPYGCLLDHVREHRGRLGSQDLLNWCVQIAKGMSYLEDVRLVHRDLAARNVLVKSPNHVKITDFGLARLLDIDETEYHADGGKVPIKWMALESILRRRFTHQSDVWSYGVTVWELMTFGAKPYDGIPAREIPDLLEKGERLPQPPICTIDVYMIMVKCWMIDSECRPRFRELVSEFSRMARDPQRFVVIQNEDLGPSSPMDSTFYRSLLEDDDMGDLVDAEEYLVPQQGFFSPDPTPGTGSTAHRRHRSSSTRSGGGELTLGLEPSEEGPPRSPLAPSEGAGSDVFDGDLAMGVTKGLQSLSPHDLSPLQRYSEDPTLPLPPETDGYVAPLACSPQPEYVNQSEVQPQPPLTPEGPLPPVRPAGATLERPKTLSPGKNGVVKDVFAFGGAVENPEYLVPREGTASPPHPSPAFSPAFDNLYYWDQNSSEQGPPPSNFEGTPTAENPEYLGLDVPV

Molecule | EC50 (human HER2/HER3) [nM] | % Maximal NRG1 activity (human HER2/HER4) | EC50 (human HER2/HER4) [nM] | % Maximal NRG1 activity (rat HER2/HER4) | EC50 (rat HER2/HER4) [nM] | phospho-ERK1/2 activity at the human HER3 HER2 receptors (human HER2/HER3; statement in text on Table 9)
WT NRG1: wild type human NRG1; native peptide purchased from Reprokine in Tables 7-9; comparator in the screening assays of Tables 4 and 6 | 0.83 ± 0.2 | 100% | 0.67 ± 0.07 | 100% | 0.29 ± 0.05 | 
WT NRG4: wild type human NRG4 (SEQ ID NO:1); parental hFcNRG4 in screening (Tables 4-6), native peptide from Reprokine in Tables 7-9 (DHEEPCGPSHKSFCLNGGLCYVIPTIPSPFCRCVENYTGARCEEVFL; listed as Homo sapiens) | > 1000 | 75 ± 4 (N = 8) % | 90.1 ± 33.2 |  |  | no activity
B1 | > 1000 | 82 ± 4 (N = 8) % | 0.16 ± 0.02 | 88 ± 7 (N = 2) % | 0.12 ± 0.04 | 
